Measurements from US9944717.

Biological target: T1, glycosylated recombinant human complement C2 with a N-terminal his-tag
T1 chain: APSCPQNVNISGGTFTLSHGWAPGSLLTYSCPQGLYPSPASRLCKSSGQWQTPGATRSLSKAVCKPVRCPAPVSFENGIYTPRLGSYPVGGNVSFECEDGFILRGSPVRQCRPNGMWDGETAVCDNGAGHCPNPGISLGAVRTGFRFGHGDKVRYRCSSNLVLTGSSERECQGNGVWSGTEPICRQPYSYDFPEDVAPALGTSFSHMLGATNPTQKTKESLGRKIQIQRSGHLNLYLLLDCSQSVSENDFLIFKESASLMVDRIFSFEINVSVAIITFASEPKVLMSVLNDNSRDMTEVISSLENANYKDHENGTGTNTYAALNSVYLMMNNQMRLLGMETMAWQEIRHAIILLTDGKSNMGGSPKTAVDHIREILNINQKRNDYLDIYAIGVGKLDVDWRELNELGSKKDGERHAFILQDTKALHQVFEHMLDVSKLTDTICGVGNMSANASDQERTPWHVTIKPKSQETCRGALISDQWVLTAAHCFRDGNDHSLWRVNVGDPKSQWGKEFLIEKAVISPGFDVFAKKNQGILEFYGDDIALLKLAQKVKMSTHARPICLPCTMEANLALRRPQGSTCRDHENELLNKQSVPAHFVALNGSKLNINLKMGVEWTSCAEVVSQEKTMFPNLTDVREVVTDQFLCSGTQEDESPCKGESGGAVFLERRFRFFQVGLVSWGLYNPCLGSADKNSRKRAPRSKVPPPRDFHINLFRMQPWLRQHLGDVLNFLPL

B1: plasma-derived activated human C1s (Calbiochem) (protein)
chain: EPTMYGEILSPNYPQAYPSEVEKSWDIEVPEGYGIHLYFTHLDIELSENCAYDSVQIISGDTEEGRLCGQRSSNNPHSPIVEEFQVPYNKLQVIFKSDFSNEERFTGFAAYYVATDINECTDFVDVPCSHFCNNFIGGYFCSCPPEYFLHDDMKNCGVNCSGDVFTALIGEIASPNYPKPYPENSRCEYQIRLEKGFQVVVTLRREDFDVEAADSAGNCLDSLVFVAGDRQFGPYCGHGFPGPLNIETKSNALDIIFQTDLTGQKKGWKLRYHGDPMPCPKEDTPNSVWEPAKAKYVFRDVVQITCLDGFEVVEGRVGATSFYSTCQSNGKWSNSKLKCQPVDCGIPESIENGKVEDPESTLFGSVIRYTCEEPYYYMENGGGGEYHCAGNGSWVNEVLGPELPKCVPVCGVPREPFEEKQRIIGGSDADIKNFPWQVFFDNPWAGGALINEYWVLTAAHVVEGNREPTMYVGSTSVQTSRLAKSKMLTPEHVFIHPGWKLLEVPEGRTNFDNDIALVRLKDPVKMGPTVSPICLPGTSSDYNLMDGDLGLISGWGRTEKRDRAVRLKAARLPVAPLRKCKEVKVEKPTADAEAYVFTPNMICAGGEKGMDSCKGDSGGAFAVQDPNDKTKFYAAGLVSWGPQCGTYGLYTRVKNYVDWIMKTMQENSTPRED
cleavage of recombinant C2 by C1s (SDS-PAGE, C1s-to-C2 ratio of 1:25): C1s cleaved recombinant C2 into subcomponents C2a (≈70 kDa) and C2b (≈30 kDa)
